Sequences and labels used below:
B1: anti-IL-12Rβ2 VHH clone 3CRM95 (VHH, not shown: small tags and cut ends)
VHH: QVQLQESGGGLVQAGDFLRLSCVFSGGTFGDYSMGWFRQAPGKEREFVAAIRWSGDSTQYAEAVKGRFTISRDNAKSTVYLQMSSLKPEDTAVYYCAADPSYYIGPNHTPSRYRDWGQGTQVTVSS
notes: tested as periplasmic extract; also called 20465
B2: anti-IL-12Rβ2 VHH clone 2CRM83 (VHH, not shown: small tags and cut ends)
VHH: QVQLQESGGGLVQPGGSLRLSCAASGFTFSAYAMSWVRQAPGKGLEWVSSISSTGTNPNYADSVKGRFTISRDNAKNTLYLQMNSLKPEDTAVYYCAEAYRNYSPPGQGTQVTVSS
notes: tested as periplasmic extract; also called 20451
B3: anti-IL-12Rβ2 VHH clone 3CRM45 (VHH, not shown: small tags and cut ends)
VHH: QVQLQESGGGLVQAGGSLRLSCTASGSIFAIDDMYWYRQAPGKEREFVAYITATNSANYLDSVNGRFTISRDNAKNSVYLQMNSLKPEDTAVYYCNAKQIVGFQIDEYWGQGTQVTVSS
notes: tested as periplasmic extract; also called 20458
B4: anti-IL-12Rβ2 VHH clone 2CRM40 (VHH, not shown: small tags and cut ends)
VHH: QVQLQESGGGLVQTGGSLRLSCAASGRTYAMAWFRQAPGKEREFAAVIIGGDRTYYANSVKDRFTISRDNAKETVYLQMNNLKPEDTAVYYCAANRRLYNSGRGYSQSEYEYWGQGTQVTVSS
notes: tested as periplasmic extract; also called 20448
B5: anti-IL-12Rβ2 VHH clone 2CAM62 (VHH, not shown: small tags and cut ends)
VHH: QVQLQESGGGLVQAEGSLRLSCVASGRTFSSYGMGWFRQAPGKEREFVTGISSAGSWIGDITSYADSVKGRFTISRDNAKNILYLQMNSLKPEDTAVYYCAAAYHGSRYYVGSTANEYTTWGQGTQVTVSS
notes: tested as periplasmic extract; also called 20493
B6: anti-IL-12Rβ2 VHH clone 2CAM67 (VHH, not shown: small tags and cut ends)
VHH: QVQLQESGGGEVQAGGSLRLSCVASGRTFSVYTTGWFRQAPGKEREFVAGMSGTRTYYADSVKGRFTISRDNAKNTVYLQMNSLKPDDTAVYYCAERRYGGPSLVWDEYDYRGQGTQVTVSS
notes: tested as periplasmic extract; also called 20494
B7: anti-IL-12Rβ2 VHH clone 3CRH83 (VHH, not shown: small tags and cut ends)
VHH: QVQLQESGGGLVQAGGSLKLSCAASGNTFSINAMAWYRQAPGQELELVAAISDVGNTIYADSMKGRFTISRGNADNTVYLQMNSLKPEDTATYYCNAGTFYTSPGDSYYRGYDFWGQGTQVTVSS
notes: tested as periplasmic extract
B8: anti-IL-12Rβ2 VHH clone 3CAM10 (VHH, not shown: small tags and cut ends)
VHH: QVQLQESGGGLVQAGGSLRLSCAASGRTFSDYPMAWFRQAPGKEREFVAGISNGGTAYYADSVKGRFTISRDNTRNTVYLQMNRLKVEDTAVYYCAAVHLLSNLRGADPHEADYWGQGTQVTVSS
notes: tested as periplasmic extract; also called 20507
B9: anti-IL-12Rβ2 VHH clone 2CAM39 (VHH, not shown: small tags and cut ends)
VHH: QVQLQESGGGLVQAGGSLRLSCAASGRTFSTYAMGWFRQAPGKEREFVAAISWSGGSTYYADSVKGRFTISRDNAKNTGYLQMNSLKPEDTAVYVCAADAEDPILYGSSWNNRRKEYDYWGQGTQVTVSS
notes: tested as periplasmic extract; also called 20482
B10: anti-IL-12Rβ2 VHH clone 3CRHM85 (VHH, not shown: small tags and cut ends)
VHH: QVQLQESGGGLVQPGGSLRLSCAASRRTFSKHAMAWFRQAPGKEREFVAVVRWSGIITYYADSVKGRFTISRDDAKNTVYLQMDSLKPEDTAVYYCAAGDYRGNGYYVPGMYDYWGQGTQVTVSS
notes: tested as periplasmic extract; also called 21061
B11: anti-IL-12Rβ2 VHH clone 2CRM28 (VHH, not shown: small tags and cut ends)
VHH: QVQLQESGGGLVQPGGSLRLSCAASGRAWNEYNMGWFRQAPGKEREFVALIWWSSGNTYYADSVKGRFTISRDKVKNTVYLQMNSLKPEDTAVYYCAAGPTFNKYEYWGQGTQVTVSS
notes: tested as periplasmic extract
B12: anti-IL-12Rβ2 VHH clone 3CAHM40 (VHH, not shown: small tags and cut ends)
VHH: QVQLQESGGGSVQAGGSLRLSCAVSGRTVSDYAMGWFRQAPGKEREFVAAMSSSETTVYPNSMKGRITISRDNAKNAVYLQLNALKPEDTAVYYCSMGPIATFQGLARQNEYHYWGQGTQVTVSS
notes: tested as periplasmic extract
B13: anti-IL-12Rβ2 VHH clone 3CRHM12 (VHH, not shown: small tags and cut ends)
VHH: QVQLQESGGGSVQAGGSLRLSCAVSGRTVSDYAMGWFRQAPGKEREFVAAMSSSETTVYPNSVKGRITISRDNAKNAVYLQMNALKPEDTAVYYCSMGPIVTFQGLARQNEYHYWGQGTQVTVSS
notes: tested as periplasmic extract
B14: anti-IL-12Rβ2 VHH clone 2CRMS29 (VHH, not shown: small tags and cut ends)
VHH: QVQLQESGGGLVQAGGPLRLSCAASGRTFSGSAMGWFRQAPGKEREFVAAITWVGGFTYYADSVKGRFTISRDNAKNTVYLQMNNLSPEDTAVYSCAAQAYHKSGYYYPPLYDYWGQGTQVTVSS
notes: tested as periplasmic extract; also called 20521
B15: anti-IL-12Rβ2 VHH clone 3CRHM20 (VHH, not shown: small tags and cut ends)
VHH: QVQLQESGGGLVQAGGSLRLSCAASGRTFSKSTMGWFRQTPGKEREFVAAITWTDTEVYANSVKDRFTISRDNAKNTFYLQMHSLKLEDTAVYYCAGDRYGSSRDSVFSSPTNYPYWGQGTQVTVSS
notes: tested as periplasmic extract; also called 21055
B16: anti-IL-12Rβ2 VHH clone 2CAM45 (VHH, not shown: small tags and cut ends)
VHH: QVQLQESGGGLVQAGGSLRLSCAASGFTFDDYAIGWFRQAPGKEREGISCISSSDYGTYYAGSVKGRFTISSDNAKNTVYLQMNSLKPEDTAVYYCAAEAISEYDCLGINYGMDYWGKGTQVTVSS
notes: tested as periplasmic extract; also called 20485
B17: anti-IL-12Rβ2 VHH clone 3CAM36 (VHH, not shown: small tags and cut ends)
VHH: QVQLQESGGGLVQAGESLTLSCTASGRTFSSYGMGWFRQAPGKERDFVAAISRDARYTDYADSVKGRFTISKDNAKNTAYLQMNSLNPEDTAVYFCAAAYTYSGSHYVTARSGDYNYWGQGTQVTVSS
notes: tested as periplasmic extract; also called 20511
B18: anti-IL-12Rβ2 VHH clone 2CAM71 (VHH, not shown: small tags and cut ends)
VHH: QVQLQESGGGLVQAGGSLRLSCAASGRTLSNSVMGWFRQAPGKEREFVAALMWSAGSEFYTDSVKGRFSISGDGAKNTVYLQMNSLKAEDTAVYYCAAKNPPHRWSDIGKSPHYEYWGQGTQVTVSS
notes: tested as periplasmic extract
B19: anti-IL-12Rβ2 VHH clone 2CAMS29 (VHH, not shown: small tags and cut ends)
VHH: QVQLQESGGGLVQAGGSLRLSCAASGLTSSTYVIGWFRQAPGKEREFVAAIMLSGGTTIYADSLKGRCTIYKDNAKNTVYLQMNSLKLEDTAVYYCASGLIYRYSDFPRSQKYNFWGQGTQVTVSS
notes: tested as periplasmic extract; also called 20534
B20: anti-IL-12Rβ2 VHH clone 2CRM42 (VHH, not shown: small tags and cut ends)
VHH: QVQLQESGGGLVQPGESLRLSCQASGRTFSNYRMGWFRQAPGKEREFVAGINWDGGHTYYTDSVKGRFTISRDNAKNTVYLQMNSLKPEDTAVYQCAVRVREYGSSRYEDQFDYWGQGTQVTVSS
notes: tested as periplasmic extract; also called 20449
B21: anti-IL-12Rβ2 VHH clone 2CAM18 (VHH)
VHH: QVQLQESGGGLVQVGDSLKLSCVASGTTFSTHVMAWYRQAPGKQREWVASIDSAGTTNYKDAVKGRFTISRDNVKRTVYLQMNNLKPEDSAVYLCSIPSRNAWGQGTQVTVSS
notes: tested as periplasmic extract; also called 20475
B22: anti-IL-12Rβ2 VHH clone 2CAM88 (VHH, not shown: small tags and cut ends)
VHH: QVQLQESGGGLVPPGDSLRLSCAASGRTFSSYTMGWFRQAPGKEREFVARISQDGGSTYYADSMKGRFTVARDNAKNTVYLQMNSLKPEDTAVYYCAADMIKWGLRVGVDSFKYWGQGTQVTVSS
notes: tested as periplasmic extract
B23: anti-IL-12Rβ2 VHH clone 3CAM11 (VHH, not shown: small tags and cut ends)
VHH: QVQLQESGGGLVQAGGSLRLSCAASGRNLSTYAMGWIRQAPGKEREFVAAISWAGSTTYYADSVKGRFIISRDNAKNTLNLQMNSLKPEDTAVYYCAAPPYVTTTYYATPPSDIRDYHYWGQGTQVTVSS
notes: tested as periplasmic extract; also called 20508

23 molecules from patent publication US20260209362A1 (VIB VZW, published 2026) can be followed below.

The assay addresses T1, mouse IL-12Rβ2 expressed on cells (mouse, UniProt P97378 24-874).
T1 construct: HEK293T cells, stably transduced (cDNA NM_008354); also called mIL-12RB2
T1 sequence: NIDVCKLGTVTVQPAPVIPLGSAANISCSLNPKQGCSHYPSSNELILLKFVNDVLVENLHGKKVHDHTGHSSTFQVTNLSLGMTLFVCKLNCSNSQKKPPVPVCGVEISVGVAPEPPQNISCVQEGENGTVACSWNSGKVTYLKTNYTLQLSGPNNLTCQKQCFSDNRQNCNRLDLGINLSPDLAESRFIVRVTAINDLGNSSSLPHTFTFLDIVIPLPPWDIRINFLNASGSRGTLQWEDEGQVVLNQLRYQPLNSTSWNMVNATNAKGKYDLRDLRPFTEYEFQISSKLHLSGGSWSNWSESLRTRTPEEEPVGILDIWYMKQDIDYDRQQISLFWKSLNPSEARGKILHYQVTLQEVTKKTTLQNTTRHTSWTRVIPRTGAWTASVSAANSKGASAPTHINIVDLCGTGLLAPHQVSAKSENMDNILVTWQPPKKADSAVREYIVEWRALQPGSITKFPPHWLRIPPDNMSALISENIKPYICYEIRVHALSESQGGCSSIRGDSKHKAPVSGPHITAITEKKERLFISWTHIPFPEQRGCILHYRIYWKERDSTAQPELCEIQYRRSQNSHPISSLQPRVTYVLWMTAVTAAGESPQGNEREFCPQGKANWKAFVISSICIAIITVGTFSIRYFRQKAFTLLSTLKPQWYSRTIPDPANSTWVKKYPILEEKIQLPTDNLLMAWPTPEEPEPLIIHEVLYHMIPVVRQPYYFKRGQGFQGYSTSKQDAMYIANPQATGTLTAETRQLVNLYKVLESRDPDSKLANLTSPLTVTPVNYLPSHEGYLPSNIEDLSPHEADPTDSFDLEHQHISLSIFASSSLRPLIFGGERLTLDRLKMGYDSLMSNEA
Put plainly: flow cytometry, P.E. VHH on HEK293T cells stably expressing mIL-12RB2. (A flow cytometer gives signals particle by particle.)
As to B1, the “% cells bound” value was 6.74% and the dMFI came to 51.

B2: the “% cells bound” value was 24.9% and the dMFI came to 122.

Take B3: the “% cells bound” value is 18.3% and the dMFI was 110.

Turning to B4, the “% cells bound” value stood at 32.8% and the dMFI turned out to be 166.

Consider B5, for which the “% cells bound” value is 11.2% and the dMFI was 70.

Turning to B6, the “% cells bound” value was 13.5% and the dMFI came to 90.

Regarding B7, the “% cells bound” value came out at 3.47% and the dMFI worked out at 21.

Turning to B8, the “% cells bound” value was found to be 41.7% and the dMFI is 212.

In the case of B9, the “% cells bound” value stood at 48.7% and the dMFI is 255.

As for B10, the “% cells bound” value was 1.7% and the dMFI came to 3.5.

With B11, the “% cells bound” value came out at 19.5% and the dMFI was found to be 100.

Take B12: the “% cells bound” value turned out to be 1.97% and the dMFI is -1.8.

On to B13, for which the “% cells bound” value worked out at 2.2% and the dMFI came out at 4.8.

On to B14, for which the “% cells bound” value was 8.42% and the dMFI amounted to 58.

Regarding B15, the “% cells bound” value was 2.83% and the dMFI was 7.4.

On to B16, for which the “% cells bound” value was determined as 6.77% and the dMFI turned out to be 51.

Consider B17, for which the “% cells bound” value came out at 29% and the dMFI amounted to 151.

On to B18, for which the “% cells bound” value came to 58.3% and the dMFI was found to be 322.

With B19, the “% cells bound” value stood at 14.5% and the dMFI was 99.

For B20, the “% cells bound” value came out at 2.93% and the dMFI was determined as 22.

For the molecule B21, the “% cells bound” value stood at 3.19% and the dMFI is 13.6.

B22: the “% cells bound” value is 14.8% and the dMFI worked out at 93.

On to B23, for which the “% cells bound” value was 37.8% and the dMFI is 181.
